Data published in publication PMC9884143 (The Journal of Biological Chemistry, 2023).

What follows are binders tested against T1, SARS-CoV-2 Spike receptor-binding domain (RBD), original strain (SARS-CoV-2, original strain, UniProt P0DTC2) (assay: not given). Conditions: not given.

Binder	Kd [nM]
CoV2-YD-13 (VHH) VHH: QVQLVESGGGLVQAGGSLRLSCAASGFTFDDYAIGWFRQAPGKEREGVSCISSSGGFTNYADSVKGRFTISSDNAKNTVYLQMNSLKPEDTAVYYCAVVVNGYGLDEWAYDYWGQGTQVTVS	2.43
CoV2-YD-14 (VHH) VHH: QVQLVESGGGLVQAGGSLRLSCSASGNTFSTYSLSWYRQAPGKQREFVAAISSGGSTSYANSVKGRFSISRDNAKKTMYLQMNSLKPEDTAVYYCYVVTTLMDYWGQGTQVTVS	0.152
CoV2-YD-35 (VHH) VHH: DVQLVESGGGLVQAGDSLRLSCTASGRTFTTNAMGWFRQAPGKEREFVAAISWSYGTTYYSDPVEGRFTISRSNAKNTVYLQMNSLKPDDTAVYYCTLRSRFNAAAWTTEAAFDYWGQGTQVTVS	0.14
CoV2-YD-38 (VHH) VHH: DVQLVESGGGLVQAGDSLRLSCAASGRTFTTNAMGWFRQAPGKEREFVAAISWNSGTTYYSDPVKGRFTISRDNAKNTVYLQMNSLKPGDTAVYYCTLRSRFNAYAWTTENAFDYWGQGTQVTVS	0.561
CoV2-YD-37 (VHH) VHH: DVQLVESGGGLVQAGDSLRLSCTASGRTFTTNAMGWFRQAPGKEREFVAAISWNYDTTYYSDPVEGRFTISRSNAKNTVYLQMNSLKPDDTAVYYCTLRSRFNAAAWTTEAAFDYWGQGTQVTVS	0.411
CoV2-YD-36 (VHH) VHH: QVQLVESGGGLVQAGDSLRLSCTASGRTFTTNAMGWFRQAPGKEREFVAAITWSYGTTYYSDPVEGRFTISRSNAKNTVYLQMNSLKPDDTAVYYCTLRSRFNAAAWTTEAAFDYWGQGTQVTVS	0.154
Rescue-1 (VHH) VHH: DVQLVESGGGLVQAGDSLRLSCTASGRTFTTNAMGWFRQAPGKEREFVAAITWSYGTTYYSDPVEGRFTISRDNAKNTVYLQMNSLKPEDTAVYYCFYERLAWDTSTYWGQGTQVTVS	50.9
Rescue-2 (VHH) VHH: DVQLVESGGGLVQAGDSLRLSCTASGRTFTTNAMGWFRQAPGKEREFVAAISWNYDTTYYSDPVEGRFTISRDNAKNTVYLQMNSLKPEDTAVYYCFYERLAWDTSTYWGQGTQVTVS	26.8
Rescue-3 (VHH) VHH: DVQLVESGGGLVQAGDSLRLSCTASGRTFTTNAMGWFRQAPGKEREFVAAISWNSGTTYYSDPVKGRFTISRDNAKNTVYLQMNSLKPEDTAVYYCFYERLAWDTSTYWGQGTQVTVS	24.9
CoV2-YD-11 (VHH) VHH: QVQLVESGGGLVQAGGSLRLSCVVSGTTFSRYDMGWYRQAPGKARETVATISRSGTTNYAYFVKGRFTITRDNAKNTVYLQMNSLKPEDTAVYYCYIFGLDYWGQGTQVTVS	0.179
CoV2-YD-5 (VHH) VHH: QVQLVESGGGLVQAGGSLRLSCVASGTTISTYNLLWFRQAPGQQREWVASISSGGDTSYAGSVKGRFTISRDNTENTMYLQMNSLKPEDTAVYYCHGANAAHGMDYWGKGTQVTVS	0.114
CoV2-YD-12 (VHH) VHH: QVQLVESGGGLVQAGGSLRLSCAASGSTFSRLNILWWRQAAGKPREWVATSTDGGTRNYAAAVKGRFTISRDNAKNTVYLQMNSLKPEDTAVYYCYTPDYWGQGTQVTVS	0.145

These binders were tested against T1, SARS-CoV-2 Spike receptor-binding … (assay: SPR). Conditions: both partners purified.

Binder	binding result
CoV2-YD-10 (VHH) VHH: QVQLVESGGDLVQPGGSLRLSCAASGFTFSTYDMGWFRQGPGKEREFVAQIAPNGITTYYADSVKGRFTISRDNAKRMVFLQMNSLKPEDTAVYFCAVDLAPWGSLKLRTNPARGQGTQVTVS	binds
